Reference: the Human Domainome abundance scans (Beltran et al. 2025)

B1: Zinc finger protein ZIC 2, residues 250 to 295; numbered along this chain, O95409 (parent)
chain: QCIKQELICKWIDPEQLSNPKKSCNKTFSTMHELVTHVSVEHVGGP

Variants of: B1
Experiment: abundance fitness (aPCA) (normalised: wild type 0, dead -1); higher = more abundant; growth selection in yeast, the domain comes from the species named
Settings: Homo sapiens

Abundance fitness: each site, then its substitutions
S29: G 0.03; N -0.213; F -0.215; V -0.167; W -0.386; Q 0.114; M -0.077; T 0.551; R 0.236; I -0.356
F28: K -0.471; R -0.84; T -0.631; W -0.968; G -0.598; L -0.668
W11: Q 0.241; T -0.413; L -0.079; E 0.117; K 0.216; C -0.712; M -0.146; D -0.647
V40: E 0.062; M 0.082; S 0.001; N 0.075; A -0.03
G44: A -0.006; R 0.057; H -0.292; E -0.2; V -0.273; K -0.142
S39: T -0.065; P -0.666; H -0.241; Y -0.873; E 0.334
L17: I 0.067; F 0.143; G -0.363; Y -0.564; Q -0.173; C -0.245; K -0.071; S -0.111
Q16: P -0.285; G -0.251; M -0.25; K -0.335; Y -0.211
H32: F 0.012; P 0.171; E 0.082; I -0.211; G -0.044; S 0.011; T 0.037; Y -0.573; N 0.275
S18: M -0.348; N 0.286; Q -0.36; T 0.118; W -0.265; A -0.348; G -0.427; Y -0.317; H -0.389
I8: D 0.384; C -0.177; G 0.036; Y -0.245
C2: H -0.126; K 0.194; V 0.419; I 0.605; G 0.259; T 0.126; S 0.047; Q 0.127; R -0.129
P14: E -0.216; Q -0.449; D -0.65; C -0.33; R -0.2; L -0.434; T -0.377; K -0.885; A -0.316; N -0.123; M -0.334; V -0.369
Q1: Y -0.705; N 0.294; C -0.274; D 0.21; G -0.22; S 0.503
N25: W -0.453; Q 0.17; G 0.3; I -0.469; A 0.507
V35: R 0.193; E 0.529; M 0.245; A -0.04; I 0.03
S23: G 0.111; T 0.193; M 0.246; W -0.01; Y 0.079; D -0.287; P 0.043; V 0.107; C 0.029; E 0.002; I 0.095
E41: C 0.03; F -0.405; G -0.279; D -0.093; I -0.216; N -0.044; T 0.032
C24: T -0.8; Q -0.764; N -0.798; W -0.868; I -1.12; G -0.61; M -0.906; Y -0.994; A -0.836
M31: A 0.12; K 0.518; V -0.363; P -0.079; I 0.318; H 0.436; G 0.079
K10: E 0.157; F -0.506; A -0.193; T 0.33; N 0.394; Y 0.165; W -0.277; I -0.484; V -0.4; G -0.138
T36: A -0.178; Q 0.055; S 0.018; G -0.032; F -0.483
K21: C -0.673; W -0.102; R -0.302; T -0.168; E 0.078; Y -0.095
